Data: paper PMC12590944

Target: Archaeoglobus fulgidus ferritin (AfFt), empty cage (Archaeoglobus fulgidus) (UniProt O29424)
Assay: UV-vis spectra; AfFt@ samples (AfFt mixed with APEX2-GFP+ at 1:3 under 300 mM NaCl); cargo per cage calculated from the spectra

Question: How did the stoichiometry N (cargo molecules per cage) turn out when “Engineered Ascorbate Peroxidase 2-GFP+36 fusion protein (APEX2-GFP+) (enzyme)” was run?
Answer: Its stoichiometry N (cargo molecules per cage) is 1.45.
